The target in this assay is T1, OB-RY1141F (Homo sapiens, UniProt P48357, Y1141F).
T1 construct: cells transfected with the full-length OB-R constructs; expressed in transfected cells; host or cells: COS-7
T1 sequence (P48357 22-1165 Y1141F): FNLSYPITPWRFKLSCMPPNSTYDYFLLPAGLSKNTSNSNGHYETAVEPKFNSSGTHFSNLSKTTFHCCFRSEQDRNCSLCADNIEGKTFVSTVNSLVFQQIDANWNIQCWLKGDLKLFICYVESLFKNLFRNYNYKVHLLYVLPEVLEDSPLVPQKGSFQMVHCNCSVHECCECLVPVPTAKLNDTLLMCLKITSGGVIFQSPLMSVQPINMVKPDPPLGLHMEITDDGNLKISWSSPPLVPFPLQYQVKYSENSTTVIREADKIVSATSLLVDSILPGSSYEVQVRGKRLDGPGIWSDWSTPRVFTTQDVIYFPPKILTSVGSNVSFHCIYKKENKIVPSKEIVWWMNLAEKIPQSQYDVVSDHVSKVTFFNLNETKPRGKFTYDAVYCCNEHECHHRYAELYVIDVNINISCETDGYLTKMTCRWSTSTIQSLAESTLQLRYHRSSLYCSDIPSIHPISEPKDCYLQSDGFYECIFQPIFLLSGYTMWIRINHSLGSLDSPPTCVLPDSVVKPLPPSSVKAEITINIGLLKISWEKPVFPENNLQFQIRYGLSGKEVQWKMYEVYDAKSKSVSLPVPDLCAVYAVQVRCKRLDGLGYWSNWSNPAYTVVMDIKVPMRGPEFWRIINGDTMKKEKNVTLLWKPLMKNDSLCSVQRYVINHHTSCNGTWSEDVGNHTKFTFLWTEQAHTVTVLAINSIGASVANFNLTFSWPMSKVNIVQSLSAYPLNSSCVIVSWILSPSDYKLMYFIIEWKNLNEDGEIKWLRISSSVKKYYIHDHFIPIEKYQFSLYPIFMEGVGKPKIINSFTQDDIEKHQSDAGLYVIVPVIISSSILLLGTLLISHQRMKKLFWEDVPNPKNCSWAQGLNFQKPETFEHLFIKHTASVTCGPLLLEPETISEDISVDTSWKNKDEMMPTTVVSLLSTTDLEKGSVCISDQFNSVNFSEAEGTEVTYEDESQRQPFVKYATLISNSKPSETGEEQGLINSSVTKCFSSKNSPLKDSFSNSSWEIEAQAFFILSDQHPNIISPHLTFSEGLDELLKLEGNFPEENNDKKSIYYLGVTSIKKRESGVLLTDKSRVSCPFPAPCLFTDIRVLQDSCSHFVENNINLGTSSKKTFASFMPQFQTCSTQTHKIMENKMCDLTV
Briefly: Luciferase reporter gene assay (3(G3)-Cy6-LUC), leptin stimulation of COS cells expressing mutant OB-RY1141F. The note with it: mutant construct OB-RY1141F, 100 ng/ml leptin for 24 hours. Type of assay: cell-based. How it is done:
The cytoplasmic domain and full-length human OB-R was cloned by PCR using human fetal liver and adipocyte cDNA (Clontech) and cloned into the expression vectors pCMX and pMT21. Chimeric receptors were constructed by fusing the extracellular domain and transmembrane domain of TrkC (amino acids 1 to 458) to the cytoplasmic domain of OB-R (amino acids 865-1165). A triple myc epitope tag was added at the C-terminus of all OB-R constructs (18). Truncation and point mutant constructs were generated by PCR and the sequences of all constructs were verified. Expression constructs were transfected into COS-7 cells using lipofectamine (GIBCO-BRL); 36-48 hours after transfection, cells were starved for either 2 hour,s for chimeric receptors or overnight for full-length receptors prior to stimulation.
Expression constructs (1 μg) for OB-R, OB-RY1141F, OB-RY986F, OB-RY1078, 1079F, and OB-RY986, 1141F were co-transfected with 1 μg of 3(G3)-Cy6-LUC and 0.1 μg of pCMX.LacZ into COS-7 cells (6-well dishes) using lipofectamine. The day after transfection, media was changed to serum-free OptiMEM (GIBCO-BRL) and then treated with 100 ng/ml murine leptin (PeproTech) or human leptin (R&D Systems) for 24 hours. […] Luciferase and β-galactosidase activities were measured in cell lysates (30) and luciferase activity was normalized to β-galactosidase activity to control for transfection differences. […]

For the substance “leptin: the product of the obese gene, secreted by adipocytes; ligand of OB-R”, the “induction of luciferase activity” value was “no induction”.
